Data from IntAct's records for PubMed 31515488.

B1: Syntenin-2 (Homo sapiens), Q9H190 (parent)
chain: MSSLYPSLEDLKVDQAIQAQVRASPKMPALPVQATAISPPPVLYPNLAELENYMGLSLSSQEVQESLLQIPEGDSTAVSGPGPGQMVAPVTGYSLGVRRAEIKPGVREIHLCKDERGKTGLRLRKVDQGLFVQLVQANTPASLVGLRFGDQLLQIDGRDCAGWSSHKAHQVVKKASGDKIVVVVRDRPFQRTVTMHKDSMGHVGFVIKKGKIVSLVKGSSAARNGLLTNHYVCEVDGQNVIGLKDKKIMEILATAGNVVTLTIIPSVIYEHMVKKLPPVLLHHTMDHSIPDA
partner: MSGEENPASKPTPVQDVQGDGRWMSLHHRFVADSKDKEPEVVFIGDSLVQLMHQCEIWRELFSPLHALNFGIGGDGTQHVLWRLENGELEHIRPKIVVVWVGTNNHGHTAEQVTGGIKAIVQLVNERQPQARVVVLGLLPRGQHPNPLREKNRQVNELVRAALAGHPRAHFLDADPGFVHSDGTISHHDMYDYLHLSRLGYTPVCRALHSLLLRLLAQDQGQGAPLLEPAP
B2: GTP-binding protein GEM (Homo sapiens), P55040 (parent)
chain: MTLNNVTMRQGTVGMQPQQQRWSIPADGRHLMVQKEPHQYSHRNRHSATPEDHCRRSWSSDSTDSVISSESGNTYYRVVLIGEQGVGKSTLANIFAGVHDSMDSDCEVLGEDTYERTLMVDGESATIILLDMWENKGENEWLHDHCMQVGDAYLIVYSITDRASFEKASELRIQLRRARQTEDIPIILVGNKSDLVRCREVSVSEGRACAVVFDCKFIETSAAVQHNVKELFEGIVRQVRLRRDSKEKNERRLAYQKRKESMPRKARRFWGKIVAKNNKNMAFKLKSKSCHDLSVL
B3: Notch homolog 2 N-terminal-like protein A (Homo sapiens), Q7Z3S9 (parent)
chain: MCVTYHNGTGYCKCPEGFLGEYCQHRDPCEKNRCQNGGTCVAQAMLGKATCRCASGFTGEDCQYSTSHPCFVSRPCLNGGTCHMLSRDTYECTCQVGFTGKECQWTDACLSHPCANGSTCTTVANQFSCKCLTGFTGQKCETDVNECDIPGHCQHGGTCLNLPGSYQCQCLQGFTGQYCDSLYVPCAPSPCVNGGTCRQTGDFTFECNCLPETVRRGTELWERDREVWNGKEHDEN
partner: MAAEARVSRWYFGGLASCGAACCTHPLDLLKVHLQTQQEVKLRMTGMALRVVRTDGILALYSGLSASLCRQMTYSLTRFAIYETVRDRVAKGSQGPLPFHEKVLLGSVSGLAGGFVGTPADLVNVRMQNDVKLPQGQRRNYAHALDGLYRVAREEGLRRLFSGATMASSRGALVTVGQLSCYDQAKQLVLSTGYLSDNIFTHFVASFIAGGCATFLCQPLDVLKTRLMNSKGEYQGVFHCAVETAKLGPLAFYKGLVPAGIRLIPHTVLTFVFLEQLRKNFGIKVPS
B4: Cyclin-D1-binding protein 1 (Homo sapiens), O95273 (parent)
chain: MASATAPAAAVPTLASPLEQLRHLAEELRLLLPRVRVGEAQETTEEFNREMFWRRLNEAAVTVSREATTLTIVFSQLPLPSPQETQKFCEQVHAAIKAFIAVYYLLPKDQGITLRKLVRGATLDIVDGMAQLMEVLSVTPTQSPENNDLISYNSVWVACQQMPQIPRDNKAAALLMLTKNVDFVKDAHEEMEQAVEECDPYSGLLNDTEENNSDNHNHEDDVLGFPSNQDLYWSEDDQELIIPCLALVRASKACLKKIRMLVAENGKKDQVAQLDDIVDISDEISPSVDDLALSIYPPMCHLTVRINSAKLVSVLKKALEITKASHVTPQPEDSWIPLLINAIDHCMNRIKELTQSELEL
partner: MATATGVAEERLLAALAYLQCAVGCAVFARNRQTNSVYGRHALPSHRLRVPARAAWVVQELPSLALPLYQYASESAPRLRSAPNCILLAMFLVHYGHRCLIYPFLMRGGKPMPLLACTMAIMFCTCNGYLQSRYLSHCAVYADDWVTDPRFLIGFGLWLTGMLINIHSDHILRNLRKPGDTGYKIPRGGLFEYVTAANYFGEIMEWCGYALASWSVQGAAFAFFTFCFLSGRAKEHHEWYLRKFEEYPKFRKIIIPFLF
B5: Zinc finger and BTB domain-containing protein 9 (Homo sapiens), Q96C00 (parent)
chain: METPTPLPPVPASPTCNPAPRTIQIEFPQHSSSLLESLNRHRLEGKFCDVSLLVQGRELRAHKAVLAAASPYFHDKLLLGDAPRLTLPSVIEADAFEGLLQLIYSGRLRLPLDALPAHLLVASGLQMWQVVDQCSEILRELETSGGGISARGGNSYHALLSTTSSTGGWCIRSSPFQTPVQSSASTESPASTESPVGGEGSELGEVLQIQVEEEEEEEEDDDDEDQGSATLSQTPQPQRVSGVFPRPHGPHPLPMTATPRKLPEGESAPLELPAPPALPPKIFYIKQEPFEPKEEISGSGTQPGGAKEETKVFSGGDTEGNGELGFLLPSGPGPTSGGGGPSWKPVDLHGNEILSGGGGPGGAGQAVHGPVKLGGTPPADGKRFGCLCGKRFAVKPKRDRHIMLTFSLRPFGCGICNKRFKLKHHLTEHMKTHAGALHACPHCGRRFRVHACFLRHRDLCKGQGWATAHWTYK
partner: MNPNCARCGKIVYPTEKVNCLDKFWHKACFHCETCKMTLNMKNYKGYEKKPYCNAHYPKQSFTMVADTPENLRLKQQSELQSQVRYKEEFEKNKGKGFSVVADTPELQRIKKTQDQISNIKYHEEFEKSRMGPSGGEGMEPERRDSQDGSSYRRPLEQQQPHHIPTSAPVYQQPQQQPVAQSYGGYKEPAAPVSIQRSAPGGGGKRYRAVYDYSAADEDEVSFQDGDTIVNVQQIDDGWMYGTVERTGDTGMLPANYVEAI

Variants of: B1
Details: with pa1b3_human PAFAH1B3, Q15102

effect of a mutation on the interaction | Variant
with no effect | V182M
with no effect | G225R

Variants of: B2
Details: with ldoc1_human LDOC1, O95751
Chain of ldoc1_human LDOC1, O95751 (O95751 whole entry): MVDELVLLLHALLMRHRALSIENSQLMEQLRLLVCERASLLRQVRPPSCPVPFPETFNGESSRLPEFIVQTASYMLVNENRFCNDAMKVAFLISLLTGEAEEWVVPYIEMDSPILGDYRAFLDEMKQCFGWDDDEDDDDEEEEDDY

effect of a mutation on the interaction | Variant
with no effect | R43G

Variants of: B2
Details: with tri23_human TRIM23, P36406
Chain of tri23_human TRIM23, P36406 (P36406 whole entry): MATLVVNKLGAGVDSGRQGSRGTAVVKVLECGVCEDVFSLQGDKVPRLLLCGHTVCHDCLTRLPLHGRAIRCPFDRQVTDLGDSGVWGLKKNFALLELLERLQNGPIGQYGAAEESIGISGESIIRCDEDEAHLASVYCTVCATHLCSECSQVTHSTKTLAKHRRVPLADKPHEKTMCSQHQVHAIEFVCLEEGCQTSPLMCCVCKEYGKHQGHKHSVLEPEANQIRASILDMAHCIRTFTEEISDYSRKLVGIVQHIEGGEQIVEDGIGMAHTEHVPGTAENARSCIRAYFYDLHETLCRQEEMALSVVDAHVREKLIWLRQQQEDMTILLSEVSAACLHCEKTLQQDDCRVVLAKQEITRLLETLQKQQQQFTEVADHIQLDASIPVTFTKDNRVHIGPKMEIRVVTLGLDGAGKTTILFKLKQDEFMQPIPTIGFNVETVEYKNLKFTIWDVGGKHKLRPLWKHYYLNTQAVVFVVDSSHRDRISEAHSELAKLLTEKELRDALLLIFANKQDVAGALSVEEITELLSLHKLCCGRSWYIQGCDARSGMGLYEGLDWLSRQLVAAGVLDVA

effect of a mutation on the interaction | Variant
with no effect | R43G

Variants of: B2
Details: with nemo_human IKBKG

effect of a mutation on the interaction | Variant
with no effect | R43G

Variants of: B2
Details: with mtus2_human MTUS2, Q5JR59
Chain of mtus2_human MTUS2, Q5JR59 (Q5JR59 whole entry): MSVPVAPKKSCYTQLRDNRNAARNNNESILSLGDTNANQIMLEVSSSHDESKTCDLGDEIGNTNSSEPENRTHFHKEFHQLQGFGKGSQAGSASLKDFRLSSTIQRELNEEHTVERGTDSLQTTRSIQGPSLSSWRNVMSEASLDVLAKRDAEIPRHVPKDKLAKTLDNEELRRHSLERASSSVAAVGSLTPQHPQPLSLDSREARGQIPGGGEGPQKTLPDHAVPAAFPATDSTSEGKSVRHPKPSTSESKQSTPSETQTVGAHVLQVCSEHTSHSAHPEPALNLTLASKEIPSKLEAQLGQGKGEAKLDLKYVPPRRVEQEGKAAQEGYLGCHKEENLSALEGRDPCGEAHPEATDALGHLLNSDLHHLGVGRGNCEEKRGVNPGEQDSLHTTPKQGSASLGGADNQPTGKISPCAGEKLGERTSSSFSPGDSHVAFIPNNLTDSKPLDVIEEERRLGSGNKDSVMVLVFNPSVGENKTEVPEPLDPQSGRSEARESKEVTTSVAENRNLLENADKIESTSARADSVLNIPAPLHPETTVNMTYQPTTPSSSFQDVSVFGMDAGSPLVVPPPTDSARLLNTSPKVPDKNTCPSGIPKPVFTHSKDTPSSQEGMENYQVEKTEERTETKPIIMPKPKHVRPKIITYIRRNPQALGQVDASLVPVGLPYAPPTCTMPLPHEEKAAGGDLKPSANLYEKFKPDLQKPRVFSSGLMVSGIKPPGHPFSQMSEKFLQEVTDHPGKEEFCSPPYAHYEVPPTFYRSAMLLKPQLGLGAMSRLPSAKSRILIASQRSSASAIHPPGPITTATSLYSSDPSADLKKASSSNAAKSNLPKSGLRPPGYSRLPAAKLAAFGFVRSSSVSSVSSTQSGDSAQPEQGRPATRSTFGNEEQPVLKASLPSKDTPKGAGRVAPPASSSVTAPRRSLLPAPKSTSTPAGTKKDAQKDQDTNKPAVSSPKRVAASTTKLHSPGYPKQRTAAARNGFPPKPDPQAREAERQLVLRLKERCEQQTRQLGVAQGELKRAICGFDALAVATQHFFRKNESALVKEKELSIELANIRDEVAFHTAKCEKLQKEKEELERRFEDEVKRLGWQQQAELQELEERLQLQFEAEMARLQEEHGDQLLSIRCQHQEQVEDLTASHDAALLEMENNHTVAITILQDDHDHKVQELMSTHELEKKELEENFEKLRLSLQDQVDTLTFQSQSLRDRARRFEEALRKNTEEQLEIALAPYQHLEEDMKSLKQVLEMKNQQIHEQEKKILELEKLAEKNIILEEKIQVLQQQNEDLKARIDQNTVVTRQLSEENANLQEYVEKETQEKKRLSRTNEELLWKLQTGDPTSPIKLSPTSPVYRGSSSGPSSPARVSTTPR

effect of a mutation on the interaction | Variant
with no effect | R43G

Variants of: B2
Details: with pdli7_human PDLIM7, Q9NR12
Chain of pdli7_human PDLIM7, Q9NR12 (Q9NR12 whole entry): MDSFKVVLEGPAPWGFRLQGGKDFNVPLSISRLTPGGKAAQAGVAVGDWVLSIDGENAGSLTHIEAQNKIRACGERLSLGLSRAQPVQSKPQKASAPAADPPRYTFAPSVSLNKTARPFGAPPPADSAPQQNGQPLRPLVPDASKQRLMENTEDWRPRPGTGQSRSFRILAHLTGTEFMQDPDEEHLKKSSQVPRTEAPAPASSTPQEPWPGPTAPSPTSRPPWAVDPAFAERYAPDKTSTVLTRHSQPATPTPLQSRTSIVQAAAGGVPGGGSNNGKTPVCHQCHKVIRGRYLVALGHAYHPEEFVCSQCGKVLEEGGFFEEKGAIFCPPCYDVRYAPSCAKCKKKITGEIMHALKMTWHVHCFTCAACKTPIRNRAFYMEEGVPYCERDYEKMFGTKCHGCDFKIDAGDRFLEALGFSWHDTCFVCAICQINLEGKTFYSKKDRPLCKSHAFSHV

effect of a mutation on the interaction | Variant
with no effect | R43G

Variants of: B3
Details: with dic_human SLC25A10, Q9UBX3

effect of a mutation on the interaction | Variant
with no effect | A115T
with no effect | R74Q

Variants of: B4
Details: with s5a1_human SRD5A1, P18405

effect of a mutation on the interaction | Variant
disrupting interaction strength | I277T

Variants of: B5
Details: with lasp1_human LASP1, Q14847

effect of a mutation on the interaction | Variant
with no effect | S173C
